# Reference: the RNAGym collection of RNA variant scans (doi:10.7554/elife.80360)
# B1: Twister Ribozyme (parent)
# chain: AACACUGCCAAUGCCGGUCCCAAGCCCGGAUAAAAGUGGAGGGGGCGG
# Variants of: B1
# Assay: self-cleavage, relative activity (ratio to wild type); higher = more cleavage; co-transcriptional
row,Variant,self-cleavage
1,U6G G24C,0.356
2,U6G G24U,0.145
3,U6G G28A,0.138
4,U6G G28C,0.16
5,U6G G28U,0.0702
6,U6G G29A,0.19
7,U6G G29C,0.139
8,U6G G36A,0.0942
9,U6G G38A,0.315
10,U6G G38C,0.168
11,U6G G39A,0.12
12,U6G G41A,0.156
13,U6G G41U,0.129
14,U6G G42A,0.0807
15,U6G G43A,0.144
16,U6G G43C,0.13
17,U6G G44A,0.229
18,U6G G44C,0.234
19,U6G G45A,0.141
20,U6G G47A,0.179
21,U6G G47C,0.179
22,U6G G48U,0.308
23,U6G U18G,0.0678
24,U6G U31G,0.429

row,Variant,self-cleavage
1,U6G U37A,0.112
2,U6G U37C,0.159
3,U6G U37G,0.196
4,G7A,0.615
5,G7A A11G,0.48
6,G7A A11U,0.573
7,G7A A23G,0.0819
8,G7A A30C,0.108
9,G7A A30U,0.425
10,G7A A32C,0.38
11,G7A A32G,0.323
12,G7A A32U,0.507
13,G7A A33U,0.269
14,G7A A34C,0.118
15,G7A A34G,0.111
16,G7A A35C,0.493
17,G7A A40G,0.157
18,G7A C8A,0.0866
19,G7A C8G,0.153
20,G7A C8U,0.0616
21,G7A C9A,0.0651
22,G7A C9G,0.0915
23,G7A C14A,0.371
24,G7A C15A,0.111

row,Variant,self-cleavage
1,G7A C15U,0.377
2,G7A C19G,0.0847
3,G7A C19U,0.122
4,G7A C20A,0.0724
5,G7A C20G,0.0749
6,G7A C21G,0.0478
7,G7A C25U,1.09
8,G7A C26A,0.0788
9,G7A C27G,0.0632
10,G7A C27U,0.11
11,G7A C46G,0.414
12,G7A C46U,0.579
13,G7A G13A,0.0834
14,G7A G13C,0.0492
15,G7A G13U,0.0584
16,G7A G16A,0.226
17,G7A G16C,0.084
18,G7A G16U,0.161
19,G7A G17C,0.0766
20,G7A G24A,0.0655
21,G7A G24C,0.0973
22,G7A G28A,0.215
23,G7A G28C,0.227
24,G7A G29A,0.325

row,Variant,self-cleavage
1,G7A G36C,0.113
2,G7A G36U,0.108
3,G7A G38U,0.168
4,G7A G41A,0.122
5,G7A G41C,0.143
6,G7A G42A,0.176
7,G7A G42C,0.258
8,G7A G43U,0.152
9,G7A G45A,0.397
10,G7A G45C,0.139
11,G7A G47A,0.271
12,G7A G48A,0.26
13,G7A G48C,0.457
14,G7A G48U,0.381
15,G7A U12A,0.441
16,G7A U18A,0.0724
17,G7A U18C,0.0816
18,G7A U18G,0.066
19,G7A U31A,0.599
20,G7C,0.0658
21,G7C A11G,0.106
22,G7C A22G,0.0331
23,G7C A22U,0.0623
24,G7C A23C,0.0613

row,Variant,self-cleavage
1,G7C A23G,0.13
2,G7C A30G,0.0729
3,G7C A32U,0.0629
4,G7C A33C,0.0837
5,G7C A33G,0.064
6,G7C A33U,0.0354
7,G7C A35G,0.0589
8,G7C A40G,0.0675
9,G7C C8A,0.0479
10,G7C C9A,0.0747
11,G7C C14A,0.0617
12,G7C C14G,0.0351
13,G7C C15U,0.0844
14,G7C C19A,0.0521
15,G7C C19U,0.0513
16,G7C C20A,0.0744
17,G7C C21A,0.0462
18,G7C C25U,0.128
19,G7C C26U,0.0512
20,G7C C46A,0.0371
21,G7C C46G,0.0721
22,G7C C46U,0.0589
23,G7C G13U,0.0637
24,G7C G16A,0.0653

row,Variant,self-cleavage
1,G7C G16U,0.0598
2,G7C G17A,0.0642
3,G7C G17C,0.0528
4,G7C G24C,0.059
5,G7C G24U,0.0628
6,G7C G28C,0.0717
7,G7C G29U,0.0704
8,G7C G36A,0.0583
9,G7C G36U,0.0725
10,G7C G39A,0.0735
11,G7C G39U,0.058
12,G7C G41A,0.0519
13,G7C G42U,0.0563
14,G7C G43A,0.0617
15,G7C G43U,0.0777
16,G7C G44C,0.0685
17,G7C G45A,0.0964
18,G7C G45C,0.0912
19,G7C G47A,0.0829
20,G7C G47U,0.0642
21,G7C G48A,0.0718
22,G7C G48U,0.0851
23,G7C U12A,0.0478
24,G7C U12G,0.0541

row,Variant,self-cleavage
1,G7C U18C,0.0305
2,G7C U18G,0.0952
3,G7C U31A,0.0718
4,G7C U31C,0.0704
5,G7C U31G,0.0544
6,G7C U37A,0.0472
7,G7C U37G,0.062
8,G7U,0.143
9,G7U A10G,0.237
10,G7U A10U,0.0807
11,G7U A11G,0.131
12,G7U A23C,0.0594
13,G7U A23G,0.0791
14,G7U A30G,0.163
15,G7U A32C,0.0917
16,G7U A33C,0.0647
17,G7U A33G,0.0484
18,G7U A34U,0.0892
19,G7U A40C,0.0967
20,G7U A40G,0.0793
21,G7U A40U,0.072
22,G7U C8A,0.0463
23,G7U C8U,0.0467
